In the supplement of paper PMC9112550, “Optimization of the antimicrobial peptide Bac7 by deep mutational scanning” (BMC Biology, 2022):

What follows are sequences tested on Escherichia coli TOP10 (assay: shrunken log2 fold change of peptide-encoding DNA abundance (4.5 h post-induction vs induction); higher = less antimicrobial activity (less host growth inhibition)). Details: time post-induction: 4.5 h; library: site-saturation at positions 5, 18, 19, 20.
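Also: peptides expressed intracellularly from a pBAD plasmid library in pooled LB shake-flask culture, induced with 0.3% L-arabinose, DNA abundance read by NGS, three biological replicates, DESeq2 with apeglm shrinkage.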

Sequence | shrunken log2 fold change
RRIRFRPPRLPRPRPRPVSIPRP | 0.0109
RRIRRRPPRLPRPRPRPRYYPRP | -0.438
RRIRVRPPRLPRPRPRPEGQPRP | 0.197
RRIRKRPPRLPRPRPRPFECPRP | -0.0669
RRIRARPPRLPRPRPRPAVNPRP | 0.102
RRIRNRPPRLPRPRPRPEPFPRP | -0.0904
RRIRMRPPRLPRPRPRPVTVPRP | 0.0436
RRIRFRPPRLPRPRPRPLHNPRP | -0.398
RRIRVRPPRLPRPRPRPHEGPRP | -0.0348
RRIRMRPPRLPRPRPRPLHRPRP | 0.304
RRIRGRPPRLPRPRPRPHLAPRP | 0.601
RRIRHRPPRLPRPRPRPLVSPRP | 0.0121
RRIRYRPPRLPRPRPRPNPNPRP | -0.735
RRIRCRPPRLPRPRPRPHNRPRP | -0.512
RRIRYRPPRLPRPRPRPFNAPRP | -2.15
RRIRQRPPRLPRPRPRPLDVPRP | -0.0496
RRIRDRPPRLPRPRPRPWPWPRP | -0.0837
RRIRLRPPRLPRPRPRPRNGPRP | -0.0949
RRIRWRPPRLPRPRPRPPEKPRP | 0.269
RRIRSRPPRLPRPRPRPSMVPRP | -0.368
RRIRFRPPRLPRPRPRPCACPRP | -0.0607
RRIRCRPPRLPRPRPRPDAGPRP | 0.122
RRIRPRPPRLPRPRPRPAVYPRP | -0.0879
RRIRPRPPRLPRPRPRPPTQPRP | 0.12
RRIRFRPPRLPRPRPRPACSPRP | 0.0139

Sequence | shrunken log2 fold change
RRIRRRPPRLPRPRPRPNNFPRP | -0.00104
RRIRARPPRLPRPRPRPVWWPRP | 0.987
RRIRGRPPRLPRPRPRPSNVPRP | 0.175
RRIRCRPPRLPRPRPRPNWYPRP | 0.09
RRIRWRPPRLPRPRPRPCREPRP | -0.189
RRIRMRPPRLPRPRPRPKAFPRP | 0.0392
RRIRQRPPRLPRPRPRPGAHPRP | 0.179
RRIRFRPPRLPRPRPRPEQVPRP | 0.0138
RRIRRRPPRLPRPRPRPTASPRP | 0.146
RRIRFRPPRLPRPRPRPMVPPRP | 0.0354
RRIRFRPPRLPRPRPRPHATPRP | -0.0624
RRIRLRPPRLPRPRPRPGYHPRP | -0.421
RRIRNRPPRLPRPRPRPILWPRP | 0.123
RRIRRRPPRLPRPRPRPAWGPRP | 0.508
RRIRQRPPRLPRPRPRPDENPRP | 0.106
RRIRNRPPRLPRPRPRPKVIPRP | -0.264
RRIRNRPPRLPRPRPRPPCGPRP | 0.317
RRIRNRPPRLPRPRPRPIHNPRP | -0.976
RRIRNRPPRLPRPRPRPLIFPRP | 1.39
RRIRIRPPRLPRPRPRPMENPRP | 0.0119
RRIRDRPPRLPRPRPRPIQHPRP | -0.444
RRIRPRPPRLPRPRPRPRGGPRP | 0.605
RRIRKRPPRLPRPRPRPHPCPRP | -0.22
RRIRIRPPRLPRPRPRPFALPRP | -0.178
RRIRERPPRLPRPRPRPCIRPRP | -0.152

Sequence | shrunken log2 fold change
RRIRTRPPRLPRPRPRPHAQPRP | 0.211
RRIRIRPPRLPRPRPRPCFPPRP | -0.569
RRIRHRPPRLPRPRPRPGQRPRP | 0.0218
RRIRTRPPRLPRPRPRPGQSPRP | -0.267
RRIRSRPPRLPRPRPRPIWTPRP | -0.254
RRIRLRPPRLPRPRPRPKFKPRP | -0.147
RRIRMRPPRLPRPRPRPKHDPRP | 0.43
RRIRCRPPRLPRPRPRPIPTPRP | -0.0788
RRIRGRPPRLPRPRPRPIAKPRP | 0.245
RRIRCRPPRLPRPRPRPTLSPRP | -0.0995
RRIRTRPPRLPRPRPRPFPVPRP | -0.177
RRIRVRPPRLPRPRPRPMPDPRP | 0.00211
RRIRNRPPRLPRPRPRPRCMPRP | -0.5
RRIRWRPPRLPRPRPRPYQPPRP | -0.0963
RRIRPRPPRLPRPRPRPPIKPRP | 0.355
RRIRIRPPRLPRPRPRPIKAPRP | -0.38
RRIRARPPRLPRPRPRPYKKPRP | -0.0244
RRIRQRPPRLPRPRPRPPWSPRP | 0.223
RRIRWRPPRLPRPRPRPKMPPRP | 1.71
RRIRDRPPRLPRPRPRPSQRPRP | -0.0409
RRIRDRPPRLPRPRPRPAYWPRP | -0.0729
RRIRTRPPRLPRPRPRPIWIPRP | -0.00704
RRIRMRPPRLPRPRPRPVEVPRP | 0.389
RRIRVRPPRLPRPRPRPEIRPRP | 0.173
RRIRLRPPRLPRPRPRPFDYPRP | -0.974

Sequence | shrunken log2 fold change
RRIRIRPPRLPRPRPRPQSYPRP | -0.603
RRIRCRPPRLPRPRPRPRTCPRP | 0.0191
RRIRMRPPRLPRPRPRPLAHPRP | 0.0417
RRIRNRPPRLPRPRPRPMINPRP | -0.346
RRIRDRPPRLPRPRPRPAVFPRP | -0.0356
RRIRARPPRLPRPRPRPFSFPRP | -0.235
RRIRPRPPRLPRPRPRPFHRPRP | -0.0334
RRIRVRPPRLPRPRPRPTSYPRP | -0.45
RRIRDRPPRLPRPRPRPACVPRP | 0.337
RRIRQRPPRLPRPRPRPCQNPRP | -0.173
RRIRSRPPRLPRPRPRPLTSPRP | 1.55
RRIRRRPPRLPRPRPRPPCRPRP | 1.09
RRIRPRPPRLPRPRPRPSQLPRP | -0.0897
RRIRPRPPRLPRPRPRPVAQPRP | 0.123
RRIRLRPPRLPRPRPRPHDDPRP | -0.115
RRIRVRPPRLPRPRPRPRHRPRP | 0.0675
RRIRCRPPRLPRPRPRPREDPRP | 0.0389
RRIRQRPPRLPRPRPRPIHFPRP | -0.236
RRIRWRPPRLPRPRPRPSLHPRP | -0.044
RRIRIRPPRLPRPRPRPETQPRP | 0.0575
RRIRGRPPRLPRPRPRPFSDPRP | 0.165
RRIRCRPPRLPRPRPRPLMHPRP | -0.264
RRIRDRPPRLPRPRPRPVVRPRP | 0.155
RRIRSRPPRLPRPRPRPVNKPRP | -0.404
RRIRVRPPRLPRPRPRPIQRPRP | -0.0384

Sequence | shrunken log2 fold change
RRIRTRPPRLPRPRPRPMHFPRP | -0.0728
RRIRPRPPRLPRPRPRPWNGPRP | 0.0165
RRIRRRPPRLPRPRPRPPPLPRP | 0.963
RRIRCRPPRLPRPRPRPPGYPRP | 0.422
RRIRIRPPRLPRPRPRPAVPPRP | -0.181
RRIRCRPPRLPRPRPRPRMEPRP | 0.0253
RRIRRRPPRLPRPRPRPSWTPRP | 0.46
RRIRFRPPRLPRPRPRPPHNPRP | 0.0036
RRIRSRPPRLPRPRPRPLLFPRP | -0.129
RRIRLRPPRLPRPRPRPGFMPRP | -0.382
RRIRQRPPRLPRPRPRPWINPRP | -0.408
RRIRMRPPRLPRPRPRPPKDPRP | 0.622
RRIRHRPPRLPRPRPRPHLRPRP | -0.0385
RRIRDRPPRLPRPRPRPLTSPRP | 0.109
RRIRYRPPRLPRPRPRPYDSPRP | -0.0285
RRIRCRPPRLPRPRPRPTQYPRP | -0.0607
RRIRERPPRLPRPRPRPYPHPRP | -0.0727
RRIRPRPPRLPRPRPRPRFLPRP | 0.146
RRIRFRPPRLPRPRPRPKNVPRP | 0.04
RRIRWRPPRLPRPRPRPPADPRP | 0.846
RRIRARPPRLPRPRPRPHLDPRP | 0.324
RRIRERPPRLPRPRPRPNWYPRP | -0.563
RRIRYRPPRLPRPRPRPLVYPRP | -1.16
RRIRNRPPRLPRPRPRPQAFPRP | -0.00429
RRIRMRPPRLPRPRPRPWHPPRP | -0.297

Sequence | shrunken log2 fold change
RRIRFRPPRLPRPRPRPGCFPRP | 0.0214
RRIRMRPPRLPRPRPRPLRYPRP | 0.856
RRIRCRPPRLPRPRPRPYLFPRP | -1.19
RRIRYRPPRLPRPRPRPESHPRP | -0.226
RRIRNRPPRLPRPRPRPIPGPRP | -0.0332
RRIRWRPPRLPRPRPRPENLPRP | 0.0583
RRIRYRPPRLPRPRPRPDHIPRP | 0.0129
RRIRYRPPRLPRPRPRPRCEPRP | 0.076
RRIRCRPPRLPRPRPRPVQPPRP | 0.455
RRIRQRPPRLPRPRPRPQLMPRP | -0.166
RRIRPRPPRLPRPRPRPFRHPRP | -0.191
RRIRRRPPRLPRPRPRPTNQPRP | 0.111
RRIRVRPPRLPRPRPRPHWLPRP | -0.291
RRIRIRPPRLPRPRPRPSDFPRP | -0.611
RRIRPRPPRLPRPRPRPLWFPRP | 0.173
RRIRRRPPRLPRPRPRPAMPPRP | 0.396
RRIRCRPPRLPRPRPRPNIAPRP | -0.275
RRIRKRPPRLPRPRPRPNWGPRP | 0.308
RRIRSRPPRLPRPRPRPARWPRP | 0.224
RRIRKRPPRLPRPRPRPMEFPRP | -0.00102
RRIRARPPRLPRPRPRPRHEPRP | 0.638
RRIRKRPPRLPRPRPRPPRPPRP | 1.34
RRIRNRPPRLPRPRPRPPDPPRP | 0.497
RRIRPRPPRLPRPRPRPDPLPRP | -0.379
RRIRDRPPRLPRPRPRPPPGPRP | 0.774
